Measurements published in patent publication US20240391987A1 (ALAMAB THERAPEUTICS, published 2024).

Columns and labels:
[1] = biological target: T1, Cx43 hemichannels of mouse osteocytes (MLO-Y4 cells) (mouse, UniProt P23242 2-382); assay: cell ELISA on mouse osteocytes (MOL-Y4)
T1 construct: whole, on cells; The assay target is the whole cell; also called connexin 43; GJA1

[2] = biological target: T2, Cx43 hemichannels of primary human osteocytes (human, UniProt P17302 2-382); assay: cell-based or functional assay
T2 sequence (P17302 2-382): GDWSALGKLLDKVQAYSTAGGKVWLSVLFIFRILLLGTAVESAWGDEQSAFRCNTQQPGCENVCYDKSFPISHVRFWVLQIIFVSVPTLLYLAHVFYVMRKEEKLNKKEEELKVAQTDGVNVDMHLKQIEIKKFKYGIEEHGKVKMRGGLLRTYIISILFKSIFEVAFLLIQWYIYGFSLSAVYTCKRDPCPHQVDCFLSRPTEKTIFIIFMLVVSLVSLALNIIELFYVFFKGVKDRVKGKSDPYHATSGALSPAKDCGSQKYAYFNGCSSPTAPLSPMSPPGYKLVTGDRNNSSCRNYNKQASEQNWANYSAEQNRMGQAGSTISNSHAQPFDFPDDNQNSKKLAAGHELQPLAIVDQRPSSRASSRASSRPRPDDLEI

[3] = biological target: T1, Cx43 hemichannels of mouse osteocytes …; assay: cell-based or functional assay
[4] = biological target: T2, Cx43 hemichannels of primary human …; assay: cell ELISA on primary human osteocytes

T1 sequence (P23242 2-382): as the sequence (P17302 2-382) above, with D123E, I163V, K242R, S250T, A252P, A256S, Q262P, N340S, S343A, L346V counted along it

B1: ALMB-0168 (antibody, V domains shown)
VH: EVQLVQSGAEVKKPGASVKVSCKASGYTFTSYYMYWVRQAPGQGLEWIGGINPSNAGTNFNEKFKNRATLTVDKSTSTAYMELSSLRSEDTAVYYCTREGNPYYTMNYWGQGTLVTVSS
VL: DVVMTQSPLSLPVTIGQPASISCKSSQSLLESDGKTYLNWLQQRPGQSPRRLIYLVSKLDSGVPDRFSGSGSGTDFTLKISRVEAEDVGVYYCWQGTHFPWTFGGGTKVEIKR
notes: also called anti-Cx43 antibody
- EC50 [1]: 37.3 µg/mL
- EC50 of Cx43 hemichannel opening, EB staining, human osteocytes [2]: 3.97 µg/mL
- EC50 of Cx43 hemichannel opening, EB staining, MOL-Y4 cells [3]: 2.33 µg/mL
- plasma ATP level in mice, luciferin/luciferase assay, against saline-treated mice [3]: > 5 fold
- EC50 [4]: 41 µg/mL
